The values below come from publication PMC2841647 (PLoS ONE, 2010).

The target of data set [1] is T1, TrkB in brain slices (Mus musculus, UniProt P15209).
T1 construct: KIRA-ELISA analysis of brain TrkB receptors from mice; from tissue; host or cells: adult Swiss mouse brain, 300-µm coronal slices
Briefly: KIRA-ELISA in brain slices incubated with peptide. In kind it is cell-based. Conditions: 1 µM directly added to the slice, BDNF 4 nM. The procedure:
TrkB activity was quantified using the previously described KIRA-ELISA assay with slight modifications. Cortical neurons were seeded on polyornithin-coated flat-bottom 96-well culture plates (12×10^4 cells per well) and cultured eight days at 37°C in 5% CO2. TetOn-rhTrkB cells were seeded on flat-bottom 96-well culture plates (4×10^4 cells per well) and incubated overnight with 1000 ng/ml doxycycline (Figs. S1,S2) except when indicated. Fluorescence levels in TetOn-rhTrkB cells were verified before each assay. […] Solubilized membranes were transferred for 2 h at room temperature onto ELISA microtiter plate (Nunc Maxisorp) pre-coated overnight at 4°C with appropriate antibodies [polyclonal anti-GFP (1∶5000, Clontech) for TetOn-rhTrkB, polyclonal anti-TrkB (1 µg/ml, Upstate) for cultured neurons and brain slices, for phosphorylation assays; monoclonal anti-GFP (1∶3000, Chemicon) for TetOn-rhTrkB, monoclonal anti-TrkB (1∶1000, BD Biosciences) for cultured neurons and brain slices, for total TrkB quantification]. […] Absorbance was read at 450 nm after addition of 3,3′,5′,5-tetramethyl-benzidine substrate (Sigma) and acidification with 1N hydrochloric acid.
For orientation: In an ELISA, binding on a coated surface is turned into a signal by an enzyme label.

For data set [2], the target named is T2, brain TrkB receptors (Mus musculus, UniProt P15209).
T2 construct: KIRA-ELISA analysis of brain TrkB receptors from mice; from tissue; host or cells: adult Swiss mouse brain, 300-µm coronal slices
T2 sequence (P15209 32-821): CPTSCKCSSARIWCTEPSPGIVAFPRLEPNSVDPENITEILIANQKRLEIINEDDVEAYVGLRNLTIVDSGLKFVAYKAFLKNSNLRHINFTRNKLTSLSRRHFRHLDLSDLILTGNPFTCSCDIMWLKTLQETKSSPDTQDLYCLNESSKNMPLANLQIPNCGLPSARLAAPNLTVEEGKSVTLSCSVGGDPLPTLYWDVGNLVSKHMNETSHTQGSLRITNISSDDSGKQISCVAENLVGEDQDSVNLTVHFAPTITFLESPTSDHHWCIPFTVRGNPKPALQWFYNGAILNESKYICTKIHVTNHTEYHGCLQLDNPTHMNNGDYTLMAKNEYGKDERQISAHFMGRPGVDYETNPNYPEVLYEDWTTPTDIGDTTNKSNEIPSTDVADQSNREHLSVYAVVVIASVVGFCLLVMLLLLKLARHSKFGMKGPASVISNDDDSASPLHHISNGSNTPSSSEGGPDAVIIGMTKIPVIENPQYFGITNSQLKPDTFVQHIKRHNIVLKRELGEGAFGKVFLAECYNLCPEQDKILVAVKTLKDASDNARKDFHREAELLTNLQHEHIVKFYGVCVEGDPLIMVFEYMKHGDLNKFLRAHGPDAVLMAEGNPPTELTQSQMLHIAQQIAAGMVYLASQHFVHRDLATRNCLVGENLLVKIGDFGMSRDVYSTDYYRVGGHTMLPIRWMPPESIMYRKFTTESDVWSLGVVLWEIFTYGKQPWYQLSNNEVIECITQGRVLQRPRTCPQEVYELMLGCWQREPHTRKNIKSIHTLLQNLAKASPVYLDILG
The data set is described as follows: In vivo KIRA-ELISA analysis after intravenous injection. Conditions: mice, i.v. 2×200 µg, 90-min interval. The procedure:
Adult Swiss mice (20–25 g) received a double 90-min-interval i.v. injection of saline buffer, tat-cyclotraxin-B (2×200 µg) or tat-empty (2×200 µg). Three hours after the first injection, mice were decapitated, brains quickly removed on ice, 300-µm coronal sections were prepared with a vibratome at three levels (bregma 0.90 mm: caudate putamen/nucleus accumbens level; bregma −1.60 mm: dorsal hippocampus level; bregma −2.70 mm: ventral hippocampus level, see SI Fig. 8A ) and placed in a holding chamber for one hour. Slices were then incubated in Ringer's solution supplemented with tat-cyclotraxin-B or tat-empty (1 µM) in holding chamber saturated with 95% O2, 5% CO2. […] Experiments were stopped by quick removing of the medium on ice. […] Protein concentrations were determined and equal amounts of proteins were loaded in each well for KIRA-ELISA assays (see above). The following antibodies combination was used for phosphorylation assays: TrkB capture with polyclonal anti-TrkB (1 µg/ml); tyrosine phosphorylation quantification with biotinylated anti-phosphotyrosine (4G10, 0.5 µg/ml) and a streptavidin-peroxydase system (1∶4000). The following combination was used for total TrkB quantification: TrkB capture with monoclonal anti-TrkB (1∶1000); total TrkB quantification with polyclonal anti-TrkB (1 µg/ml). Absorbance at 450 nm was read after addition of TMB and acidification. […]

Data set [3] deals with T3, phospho(Y816)-TrkB (Mus musculus, UniProt P15209).
T3 construct: KIRA-ELISA analysis of brain TrkB receptors from mice; from tissue; host or cells: adult Swiss mouse brain, 300-µm coronal slices
T3 sequence (P15209 32-821): as above
Briefly: Western blot with phospho(Y816)-TrkB antibody after intravenous injection. In kind it is in vivo. Conditions: mice, i.v. injection, vs tat-empty. The procedure: Cell lysates were prepared in boiling SDS (2%, w/v) as described previously and subjected to SDS-PAGE. Detection and analysis of eIF4E, MAPK and Akt phosphorylation were done using anti-total and -phospho-eIF4E antibodies (1∶1000, Cell Signaling), anti-total and -phospho-MAPK antibodies (1∶1000, Cell Signaling) or anti-total and–phospho (Ser473) Akt antibodies (1∶1000, Santa Cruz; 1∶1000, Cell Signaling, respectively), respectively. For TrkB expression analysis, cortical neurons were cultured for eight days and TetOn-rhTrkB cells were incubated overnight with doxycycline. Cells were solubilized as for KIRA-ELISA assays and lysates were centrifuged at 14,000×g for 20 min at 4°C. Cleared supernatant was collected and proteins were subjected to SDS-PAGE. Detection of rhTrkB-ECFP and neuronal mouse TrkB were performed using anti-GFP polyclonal antibody (1∶5000, Clontech) and anti-rodent TrkB polyclonal antibody (1 µg/ml, Upstate), respectively. TrkB phosphorylation was quantified using anti-phospho-TrkB antibody (kindly provided by M.V. Chao). Proteins were visualized using appropriate HRP-conjugated secondary antibodies and films were quantified by densitometry.
Supplementary file pone.0009777.s009.tif: Figure S8 Protocol for in vivo KIRA-ELISA analysis after intravenous injection. […] Bands intensity have been quantified (down) Data are mean ± s.e.m. […]
A general note: In western blotting, separated proteins are transferred to a membrane and probed.

Data set [4] is described as follows: Brain localization after intravenous injections (immunohistochemistry). It counts as in vivo, mouse. Conditions: mice; four hours after the last intravenous injection; cortex, hippocampus, striatum, nucleus accumbens. The procedure:
Mice were injected twice with 200 µg of biotinylated tat-cyclotraxin-B. […] Brains were postfixed for 1 h in 4% paraformaldehyde and cut in 40-µm sections with a vibratome. Sections obtained at the same levels as for in vivo KIRA-ELISA analysis (see Fig. S8) were rinsed in PBS and incubated in TBS containing 0.05% Tween-20 with VectaStain ABC Elite kit (Vector Laboratories). […] Non-injected mice were used as negative controls for endogenous biotin.

T1 sequence (P15209 32-821): as above

In the case of “YGRKKRRQRRRCNPMGYTKEGC [tat-cyclotraxin-B]”, the “decrease in TrkB activity, slice incubation” value in data set [1] is on record as 52.0±3.9%. Further, the “decrease in TrkB activity, injection” value in data set [2] stood at 50.9±3.1%. Also, in data set [3], the “reduction in phospho(Y816)-TrkB band intensity” value was found to be 37.7±4.7%. Moreover, in data set [4], the “detection in brain after intravenous injection” value is on record as “detected in many brain structures”.
